# EP4410371A1 (Max-Planck-Gesellschaft zur Förderung der Wissenschaften …, dated 2024)
# Biological target: T1, Cys-HLA used for Octet assays following biotinylation at the N-terminal ectopic cysteine (Staphylococcus aureus, UniProt P09616 27-319)
# Test: BLI (Octet), biotinylated HLA on streptavidin sensors
row,Binder,Kd [nM]
1,VHH antibody Ma7F02 (VHH) VHH: QVQLVESGGGLVQAGGSLRLSCTVSGSIDSLHTMGWFRQAPGKKRDFVAVVSWSGGNTYYPDYAKGRFTISRDNTKNTVYLQMNSLKPEDTAIYYCAAESGSGNYWKIWEHEFDSWGQGTQVTVSS,~0.05

# Biological target: T1, Cys-HLA used for Octet assays following …
# Test: not given
row,Binder,Kd [nM]
1,VHH antibody Ma7F02 (VHH) VHH: QVQLVESGGGLVQAGGSLRLSCTVSGSIDSLHTMGWFRQAPGKKRDFVAVVSWSGGNTYYPDYAKGRFTISRDNTKNTVYLQMNSLKPEDTAIYYCAAESGSGNYWKIWEHEFDSWGQGTQVTVSS,0.04
2,VHH antibody Ma7C02 (VHH) VHH: QVQLVESGGGLVQAGGSLRLSCAASGRTFSDYAMGWFRQAAGKDRDFVAVITRSGDSTYYPDSTKGRFTISRDNAKNTMYLQMNSLKPEDTARYYCAATDPTNYWRIWEHEFDYWGQGTQVTVSS,0.09
3,VHH antibody Ma7C11 (VHH) VHH: QVQLVESGGGLVRAGGSLRLSCAASGSISSVNGMGWFRQAPGKERLFVAQVSLLDSSTYYADSVKGRFTISRDDAKNTMYLQMNNVRPEETAVYYCAATKLRIGTAFSSEYDYWGQGTQVTVSS,0.3
4,VHH antibody Ma8H03 (VHH) VHH: QVQLVESGGGLVHPGGSLRLSCAASGSSLDHYVIGWFRQVPGKQREGISCISSGGSTNYADSVKGRFTVSRDNVKSTVYLQMNSLAPDDSAEYYCAAQRNLGNFCVLGWLEYDDWGQGTQVTVSS,≤ 0.01
5,VHH antibody Ma8E03 (VHH) VHH: QVQLVESGGGLVHPGGSLRLSCAASGSSLDHYVIGWFRQVPGKEREGVSCISRSGGSTNYADSVKGRFTVSRDNVKNMVYLQMNSLEPEDSAEYYCAAQRNLGNFCVLGWLEYDDWGQGTQVTVSS,≤ 0.01
6,VHH antibody Ma8G02 (VHH) VHH: QVQLVESGGGLVLPGGSLRLSCAASGSSLDHYVIGWFRQYPGKEREGVSCISRSGGSTNYADSVKGRFTVSRDNVKNMVYLQMNSLEPEDSAEYYCAAQRNLGNFCVLGWVEYDDWGQGTQVTVSS,≤ 0.01
7,VHH antibody Ma7D06 (VHH) VHH: QVQLVESGGGLVQAGGSLRLSCAASGSISGIDTMAWFRQIPGKDREFVAVIKWAAGSTWYPDFVKGRFTVSRDNAKNMVYLQMDSVKPEDTAIYYCAAAAGEKYYYRLFPYEYDYWGQGTQVTVSS,0.06
8,VHH antibody Ma8A05 (VHH) VHH: QVQLVESGGGLVQPGGSLRLSCAASPASGFTLDLYTIAWFLQAPGKEREGVSAISLSDEITYYSDAVKGRFTISRDSAKNTVFLQMDRLKPEDTGVYYCAIGAFDFILKEADADYWGQGTQVTVSS,0.6
9,VHH antibody Ma8D05 (VHH) VHH: QVQLVESGGGLVQPGGSLRLSCAASPASGFTLDLYTIAWFLQAPGKEREGVSAISLSDEITYYSDTVKGRFTISRDSAKNTVFLQMDRLKPEDTGVYYCAIGAFDFILKEADADYWGQGTQVTVSS,1
10,VHH antibody Ma8D07 (VHH) VHH: QVQLVESGGGLVQPGGSLRLSCAASESIYKLNAMGWYRQAPGKELELVTTISSGGSTFYTDPVKGRFTISTDNAKNTVYLQMRSLKPEDTAMYYCAANPTYNHYSARGQGTQVTVSS,0.8
11,VHH antibody Ma8D08 (VHH) VHH: QVQLVESGGGFVQAGGSLRLSCAASESIYKLNAMGWYRQAPGKELELVTTISSGGSTFYTDPVKGRFTISTDNAKNTVYLQMRSLKPEDTAMYYCAANPTYNHYSARGQGTQVTVSS,1
12,VHH antibody Ma7A07 (VHH) VHH: QVQLVESGGGLVQPGGSLRLSCAASGFTLGDYTLGWFRQAPGKQREGVSSIASSALSIYIADSVKGRFTISRDDAKNTIYLHMNNLKPEDTGVYYCARGVDSWRWVPSAMDLWGKGTLVTVSS,≤ 0.01
13,VHH antibody Ma7B12 (VHH) VHH: QVQLVESGGGLVQPGGSLRLSCAASGFTLGDYTLGWFRQAPGKQREGVSSIASSALSIYIADSVKGRFTISRDNAKNTVYLHMNNLKPEDTGVYYCARGIDNWRWVPSAMDLWGKGTQVTVSS,≤ 0.01
14,VHH antibody Ma7B03 (VHH) VHH: QVQLVESGGGLVQPGGSLRLSCAASGFTLSNYYVGWFRQAPGKQREGVSSIGSSDLSIYIADSVKGRFTISRDNAKNTIYLHMNNLKPDDTGVYYCARGTDSWRWVPSAMDLWGKGTQVTVSS,≤ 0.01
15,VHH antibody Ma7A08 (VHH) VHH: QVQLVESGGGLVQPGGSLTLSCAASGFTLGDYTLGWFRQAPGKQREGVSSIASSVLSVYIADSVKGRFTISRDDAKNTIYLHMNNLKPEDTGVYYCARGVDSWRWVPSAMDLWGKGTLVTVSS,≤ 0.01
16,VHH antibody Ma7B01 (VHH) VHH: QVQLVESGGGLVQAGDSLSLSCAASGRTFSNYAMGWFRQAPGKERHFVAVINQIGDSTWYPDFAKGRFTISRDNAKNTLYLQMNSLKPEDTAVYYCAATDPRSYWRIWPHEYGYWGQGTQVTVSS,0.05
17,VHH antibody Ma7E01 (VHH) VHH: QVQLVESGGGSVQAGDSLSLSCVASERTFSNYAMGWFRQAPGKERHFVAVINPIGEETWYPDFAKGRFTISRDNAKNTLYLQMNSLKPEDTAVYYCAATDPRSYWRIWEHEFDYWGQGTQVTVSS,≤ 0.01
